Experiment [1] deals with T1, FcγRIIA-R167 (human).
T1 construct: recombinant, His tag; ACRO product; different from FcγRIIA-R167-Sino; also called Human Fc gamma RIIA/CD32a (R167) Protein, His Tag
Kind of experiment: SPR (Biacore T200, protein A sensor chip), binding to FcγRIIA-R167. An excerpt:
(§1) The Fc receptors included FcγRIIB (FcγRIIB-Acro), FcγRIIA (FcγRIIA-H167-Acro), FcγRIIIA (FcγRIIIA-V176-Acro), FcγRIIIB (FcγRIIIB-NA1-Acro), FcγRI (FcγRI-Sino), and FcRn (FcRn-Acro).
(§2) The Fc receptors included FcγRI (FcγRI-Sino), FcγRIIA (FcγRIIA-H167-Acro and FcγRIIA-R167), FcγRIIB, FcγRIIIA (FcγRIIIA-F176 and FcγRIIIA-V176-Acro), and FcγRIIIB (FcγRIIIB-NA1-Acro).

Experiment [2] deals with human CD40 (hCD40-his) (human, UniProt P25942 21-193). Kind of experiment: SPR Biacore T200; binder captured on protein A chip, target as analyte. The protocol:
Binding affinity to human CD40 of the obtained fusion proteins PDL1-C40-6A7-FV3A (IgG1), PDL1-C40-6A7-FV3A-IgG4, PDL1-C40-6A7-FV3C (IgG1), PDL1-C40-6A7-FV3A1 (IgG1), PDL1-C40-6A7-FV3A2 (IgG1), and PDL1-C40-6A7-FV3A3 (IgG1) were determined by surface plasmon resonance (SPR) using Biacore™ T200 biosensor equipped with pre-immobilized protein A sensor chips. The original anti-CD40 monoclonal antibody C40-6A7 IgG2 (6A7, VH SEQ ID NO: 91, VL SEQ ID NO: 92), which the scFV was derived from, was used as a control.
In general terms: In SPR one partner is held on a chip, and binding of the other changes the refractive index at the surface.

The target of experiment [3] is T2, FcγRIIB (human).
T2 construct: recombinant protein used as SPR analyte
T2 sequence (P31994 43-217): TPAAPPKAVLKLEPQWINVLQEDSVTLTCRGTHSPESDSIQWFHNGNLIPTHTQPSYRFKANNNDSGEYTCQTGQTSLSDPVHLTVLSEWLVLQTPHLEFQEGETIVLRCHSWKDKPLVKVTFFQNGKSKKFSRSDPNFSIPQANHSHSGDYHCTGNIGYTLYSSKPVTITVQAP
As to the kind of experiment: SPR (Biacore T200, protein A sensor chip), binding to FcγRIIB.
Text: as §1, §2

Experiment [4] deals with T3, FcγRIIA-H167-Acro (human, UniProt P12318 36-218, limits assumed).
T3 construct: bought; His at 167; also called Human Fc gamma RIIA/CD32a (H167) Protein, His Tag
T3 sequence (looked up): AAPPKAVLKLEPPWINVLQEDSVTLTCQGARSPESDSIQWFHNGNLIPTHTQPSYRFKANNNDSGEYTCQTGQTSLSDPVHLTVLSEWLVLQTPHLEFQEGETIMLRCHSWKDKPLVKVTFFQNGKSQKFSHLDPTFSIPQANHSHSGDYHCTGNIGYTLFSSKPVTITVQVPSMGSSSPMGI
Kind of experiment: SPR (Biacore T200, protein A sensor chip), binding to FcγRIIA-H167-Acro.
Text: as §1, §2

In experiment [5] the target is T4, FcγRIIIA-V176-Acro (human, UniProt P08637 17-208).
T4 construct: bought; Val at 176; also called Human Fc gamma RIIIA/CD16a (V176) Protein, His Tag
T4 sequence (P08637 17-208 F176V limits assumed): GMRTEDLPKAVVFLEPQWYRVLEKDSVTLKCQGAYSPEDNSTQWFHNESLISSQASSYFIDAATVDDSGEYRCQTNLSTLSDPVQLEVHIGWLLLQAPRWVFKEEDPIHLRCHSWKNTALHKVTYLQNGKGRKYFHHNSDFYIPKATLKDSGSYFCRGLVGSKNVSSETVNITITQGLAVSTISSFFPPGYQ
Kind of experiment: SPR (Biacore T200, protein A sensor chip), binding to FcγRIIIA-V176-Acro.
Text: as §1, §2

In experiment [6] the target is T5, FcγRI-Sino (human, UniProt P12314 16-288, limits assumed).
T5 construct: bought; also called CD64 Protein, Human, Recombinant (His Tag)
T5 sequence (P12314 16-288 limits assumed): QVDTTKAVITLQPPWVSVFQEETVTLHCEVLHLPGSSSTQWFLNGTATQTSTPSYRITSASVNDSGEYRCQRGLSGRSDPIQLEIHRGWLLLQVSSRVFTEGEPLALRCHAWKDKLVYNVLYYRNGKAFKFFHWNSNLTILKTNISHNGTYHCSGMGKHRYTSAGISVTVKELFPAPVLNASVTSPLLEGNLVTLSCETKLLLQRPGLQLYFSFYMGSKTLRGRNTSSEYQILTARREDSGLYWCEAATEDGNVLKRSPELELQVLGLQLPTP
As to the kind of experiment: SPR (Biacore T200, protein A sensor chip), binding to FcγRI-Sino.
Text: as §1, §2

Experiment [7] deals with T6, TGFb1 (Homo sapiens (Human), UniProt P01137 279-390, Active TGF-beta-1 is a disulfide-linked homodimer of this chain; one copy is given.).
T6 construct: also called TGFb1 protein
T6 sequence (P01137 279-390 limits assumed): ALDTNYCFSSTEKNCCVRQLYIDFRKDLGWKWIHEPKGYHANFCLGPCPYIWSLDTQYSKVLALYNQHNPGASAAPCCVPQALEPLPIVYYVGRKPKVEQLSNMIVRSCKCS
As to the kind of experiment: SPR; binder as capture solution, TGFb1 as analyte.

Experiment [8] concerns the target T7, FcγRIIIB-Sino (human, UniProt O75015 17-200, limits assumed).
T7 construct: bought; also called FCRIIIB-Sino; CD16b Protein, Human, Recombinant (NA1 allotypes, His Tag)
Kind of experiment: SPR Biacore T200; binder captured on protein A chip, Fc receptor as analyte. The protocol: (§3) Binding affinities of the fusion proteins PDL1-TGFbR2-3A (IgG1) (or PDL1-TGFbR2-3A-IgG1) and PDL1-TGFbR2-3A-IgG4 to human Fc receptors were measured by surface plasmon resonance (SPR) using Biacore™ T200 biosensor equipped with pre-immobilized protein A sensor chips. The Fc receptors included FcγRI-Sino, FcγRIIA-R167-Sino, FcγRIIIA-F176-Sino, FcγRIIIB-Sino, and FcγRn. A humanized CTLA4 antibody CT4-4G12-IgG1 (CT4-4G12, or 4G12; VH SEQ ID NO: 44, VL SEQ ID NO: 45) was used as a control to test binding affinity to FcγRn.

The target in experiment [9] is T5, FcγRI-Sino. Described as above. The method, then: as §3
For experiment [10], the target named is T8, FcγRIIA-R167-Sino (human, UniProt P12318 34-218, limits assumed).
T8 construct: bought; Arg at 167; also called FCRIIA-R167-Sino; CD32A Protein, Human, Recombinant (167 Arg, His Tag)
T8 sequence (looked up): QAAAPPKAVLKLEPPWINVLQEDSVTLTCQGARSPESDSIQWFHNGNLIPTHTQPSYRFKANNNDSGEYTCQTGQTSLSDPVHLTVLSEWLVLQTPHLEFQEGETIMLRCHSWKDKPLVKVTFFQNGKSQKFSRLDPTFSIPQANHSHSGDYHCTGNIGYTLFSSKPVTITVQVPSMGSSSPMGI
The description is as above. The method, then: as §3

Experiment [11] deals with T9, FcRn (human, UniProt P55899 24-297; P61769 21-119).
T9 construct: bought; also called FcγRn; FcRn-Acro
T9 sequence (P55899 24-297 limits assumed, chain 1 of 2): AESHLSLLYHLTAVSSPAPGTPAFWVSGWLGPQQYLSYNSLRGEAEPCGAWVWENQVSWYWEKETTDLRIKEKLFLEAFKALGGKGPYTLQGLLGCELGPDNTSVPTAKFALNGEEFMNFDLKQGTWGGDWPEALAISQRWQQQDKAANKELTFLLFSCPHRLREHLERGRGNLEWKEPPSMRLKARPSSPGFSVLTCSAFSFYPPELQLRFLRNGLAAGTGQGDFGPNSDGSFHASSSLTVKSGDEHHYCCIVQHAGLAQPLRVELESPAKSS
T9 sequence (P61769 21-119 limits assumed, chain 2 of 2): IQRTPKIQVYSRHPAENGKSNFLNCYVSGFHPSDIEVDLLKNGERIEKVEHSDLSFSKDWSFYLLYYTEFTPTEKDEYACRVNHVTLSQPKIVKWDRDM
The experiment is described as above. The method, then:
as §3

Experiment [12] addresses T10, FcγRIIIA-F176 (human, UniProt P08637).
T10 construct: recombinant, His tag; ACRO product; different from FcγRIIIA-F176-Sino; also called Human Fc gamma RIIIA/CD16a (F176) Protein, His Tag
Kind of experiment: SPR (Biacore T200, protein A sensor chip), binding to FcγRIIIA-F176.
Text: as §1, §2

Experiment [13] deals with T11, FcγRIIIB-NA1-Acro (human, UniProt O75015 17-200, limits assumed).
T11 construct: bought; also called Human Fc gamma RIIIB/CD16b (NA1) Protein, His Tag
T11 sequence (O75015 other isoform, or with tags, fused parts or gaps limits assumed): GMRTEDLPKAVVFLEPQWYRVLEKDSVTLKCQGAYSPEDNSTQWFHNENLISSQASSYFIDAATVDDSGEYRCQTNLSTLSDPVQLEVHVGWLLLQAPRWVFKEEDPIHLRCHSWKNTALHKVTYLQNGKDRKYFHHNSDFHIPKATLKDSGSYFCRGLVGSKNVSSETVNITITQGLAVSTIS
Kind of experiment: SPR (Biacore T200, protein A sensor chip), binding to FcγRIIIB-NA1-Acro.
Text: as §1, §2

For experiment [14], the target named is T12, 6×Histidine-tagged human PD-L1 protein (hPDL1-His) (human, UniProt Q9NZQ7 19-238).
T12 construct: also called hPL1-His; His-tagged human PD-L1
T12 sequence (Q9NZQ7 19-238 limits assumed): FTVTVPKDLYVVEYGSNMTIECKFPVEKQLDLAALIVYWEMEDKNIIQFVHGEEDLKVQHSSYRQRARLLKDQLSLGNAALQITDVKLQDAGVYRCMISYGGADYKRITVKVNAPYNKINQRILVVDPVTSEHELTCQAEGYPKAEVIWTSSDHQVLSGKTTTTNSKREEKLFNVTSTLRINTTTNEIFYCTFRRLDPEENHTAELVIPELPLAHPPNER
Kind of experiment: SPR Biacore T200; binder captured on protein A chip, target as analyte. The protocol: Binding affinities of the fusion proteins against human CTLA4 (hCTLA4-His) or human PD-L1 (hPDL1) were measured by surface plasmon resonance (SPR) using Biacore™ T200 biosensor equipped with pre-immobilized protein A sensor chips. A CTLA4 antibody CT4-4G12-IgG1 (CT4) was used as a control. ATOR1015-CD86 (CD86) and KN035-IgG1 (with D265A mutation in heavy chain constant domain) were also used as controls.

The text below walks through data of patent US20240360201A1 (BIOCYTOGEN PHARMACEUTICALS BEIJING, published 2024).

The term Kd denotes the concentration at which binding is half-saturated. Broadly, the koff is a measure of how fast the partners let go of each other. High values mean a short-lived complex, low ones a long-lived complex. The kon is a measure of how fast the partners come together. Read a high kon as fast association.

human CD40 (hCD40-his), sequence (P25942 21-193 limits assumed): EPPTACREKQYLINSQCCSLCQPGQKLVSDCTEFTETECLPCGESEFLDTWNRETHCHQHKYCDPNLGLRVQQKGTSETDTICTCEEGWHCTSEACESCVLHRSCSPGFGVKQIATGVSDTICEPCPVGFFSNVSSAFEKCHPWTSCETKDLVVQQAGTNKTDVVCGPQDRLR
T10 sequence (P08637 17-208 limits assumed, form in doubt): as the sequence (P08637 17-208 F176V limits assumed) above, with V160F counted along it
T7 sequence (O75015 other isoform, or with tags, fused parts or gaps limits assumed): as the sequence (O75015 other isoform, or with tags, fused parts or gaps limits assumed) above

B1: PDL1-C40-6A7-FV3A-IgG4 (bispecific antibody)
heavy: EVQLLESGGGLVQPGGSLRLSCAASGFTFSSYIMMWVRQAPGKGLEWVSSIYPSGGITFYADTVKGRFTISRDNSKNTLYLQMNSLRAEDTAVYYCARIKLGTVTTVDYWGQGTLVTVSSASTKGPSVFPLAPCSRSTSESTAALGCLVKDYFPEPVTVSWNSGALTSGVHTFPAVLQSSGLYSLSSVVTVPSSSLGTKTYTCNVDHKPSNTKVDKRVESKYGPPCPPCPAPEFLGGPSVFLFPPKPKDTLMISRTPEVTCVVVDVSQEDPEVQFNWYVDGVEVHNAKTKPREEQFNSTYRVVSVLTVLHQDWLNGKEYKCKVSNKGLPSSIEKTISKAKGQPREPQVYTLPPSQEEGGGGSGGGGSDVVMTQSPLSLPVTLGQPASISCRSSQSLLHSNGNTYLHWYQQRPGQSPNHLIYQVSNRFSGVPDRFSGSGSGTDFTLKISRVEAEDVGVYFCSQTTHVPWTFGCGTKVEIKGGGGSGGGGSGGGGSGGGGSQVQLVQSGAEVKKPGASVKLSCKASGYTFISYYIYWVKQAPGQCLEWIGGINPRNGGTNFNEKFKSRATLTVDTSISTAYMELSRLRSEDTAVYYCTRHGNGVYWGQGTTLTVSSGGGGSGGGGSVSLTCLVKGFYPSDIAVEWESNGQPENNYKTTPPVLDSDGSFFLYSRLTVDKSRWQEGNVFSCSVMHEALHNHYTQKSLSLSLGK
light: QSALTQPASVSGSPGQSITISCTGTSSDVGGYNYVSWYQQHPGKAPKLMIYDVSNRPSGVSNRFSGSKSGNTASLTISGLQAEDEADYYCSSYTSSSTRVFGTGTKVTVLGQPKANPTVTLFPPSSEELQANKATLVCLISDFYPGAVTVAWKADGSPVKAGVETTKPSKQSNNKYAASSYLSLTPEQWKSHRSYSCQVTHEGSTVEKTVAPTECS
notes: IgG4 subtype of PDL1-C40-6A7-FV3A; also called G5
As for B1, the dissociation constant (Kd) is 706 nM in experiment [1]; 0.852 nM in [2]; 766 nM in experiment [3]; 1130 nM in experiment [4]; 75.3 nM in experiment [5]; 1.22 nM in [6]. In [2], this molecule showed a koff of 0.000432 s⁻¹. Further, in experiment [2], the kon came to 507000 M⁻¹ s⁻¹.

B2: PDL1-TGFbR2-3A (antibody)
heavy: EVQLLESGGGLVQPGGSLRLSCAASGFTFSSYIMMWVRQAPGKGLEWVSSIYPSGGITFYADTVKGRFTISRDNSKNTLYLQMNSLRAEDTAVYYCARIKLGTVTTVDYWGQGTLVTVSSASTKGPSVFPLAPSSKSTSGGTAALGCLVKDYFPEPVTVSWNSGALTSGVHTFPAVLQSSGLYSLSSVVTVPSSSLGTQTYICNVNHKPSNTKVDKKVEPKSCDKTHTCPPCPAPELLGGPSVFLFPPKPKDTLMISRTPEVTCVVVDVSHEDPEVKFNWYVDGVEVHNAKTKPREEQYNSTYRVVSVLTVLHQDWLNGKEYKCKVSNKALPAPIEKTISKAKGQPREPQVYTLPPSRDEGGGGSGGGGSIPPHVQKSVNNDMIVTDNNGAVKFPQLCKFCDVRFSTCDNQKSCMSNCSITSICEKPQEVCVAVWRKNDENITLETVCHDPKLPYHDFILEDAASPKCIMKEKKKPGETFFMCSCSSDECNDNIIFSEEYNTSNPDGGGGSGGGGSVSLTCLVKGFYPSDIAVEWESNGQPENNYKTTPPVLDSDGSFFLYSKLTVDKSRWQQGNVFSCSVMHEALHNHYTQKSLSLSPGK
light: B1 light
notes: IgG1; also called PDL1-TGFbR2-3A (IgG1); PDL1-TGFbR2-3A-IgG1
For the molecule B2, the Kd came out at 37.3 nM in experiment [7]; 1330 nM in [8]; 14.5 nM in experiment [9]; 844 nM in [10]; 19.4 nM in [11]. In experiment [7], this molecule displayed a koff of 0.00573 s⁻¹. Also, the kon in experiment [7] was 154000 M⁻¹ s⁻¹.

B3: PD1-PL1-3F2-FV3A-IgG1 (bispecific antibody)
heavy: EVQLVESGGGLVQPGGSLRLSCAASGFTFSSYSMSWVRQAPGKRLEWVAHISSGGSSTYYPDTVKGRFTISRDNSKNTLYLQMNSLRAEDTAMYYCTRQFYYGSSFWYFDVWGAGTTVTVSSASTKGPSVFPLAPSSKSTSGGTAALGCLVKDYFPEPVTVSWNSGALTSGVHTFPAVLQSSGLYSLSSVVTVPSSSLGTQTYICNVNHKPSNTKVDKKVEPKSCDKTHTCPPCPAPELLGGPSVFLFPPKPKDTLMISRTPEVTCVVVDVSHEDPEVKFNWYVDGVEVHNAKTKPREEQYNSTYRVVSVLTVLHQDWLNGKEYKCKVSNKALPAPIEKTISKAKGQPREPQVYTLPPSREEGGGGSGGGGSQVQLQESGPGLVKPSETLSLTCTVSGYSITSGYNWHWIRQFPGNCLEWMGYIHHSSITNYNPSLKSRITISRDTSKNQFSLKLSSVTAADTATYYCAREGYDYDWFAYWGQGTLVTVSSASTGGGGSGGGGSGGGGSGGGGSDIVLTQSPDFQSVTPKEKVTLSCRASQSISNNLHWYQQKPDESPKLLIKYASQSISGIPSRFSGSGSGTDFTLTINSVEAEDFAMYFCQQSKSWPFTFGCGTRLEIKGGGGSGGGGSVSLTCLVKGFYPSDIAVEWESNGQPENNYKTTPPVLDSDGSFFLYSKLTVDKSRWQQGNVFSCSVMHEALHNHYTQKSLSLSPGK
light: DNVLTQSPATLSVSPGERATLSCKASQSVDFDGDSYMNWYQQKPGQPPRLLIYAASNLESGIPARFSGSGSGTDFTLTISSVEPEDFATYYCQQSNEDPPTFGGGTKVEIKRTVAAPSVFIFPPSDEQLKSGTASVVCLLNNFYPREAKVQWKVDNALQSGNSQESVTEQDSKDSTYSLSSTLTLSKADYEKHKVYACEVTHQGLSSPVTKSFNRGEC
notes: IgG1; also called G4
Take B3: the Kd in experiment [1] is 326 nM; in experiment [3], 2350 nM; in [12], 84.6 nM; in experiment [13], 1180 nM; in experiment [4] it was 633 nM; in [14], 2.41 nM. The results for the Kd in experiment [5] and in [6] were 130 nM and 2.94 nM, respectively. In [14], the koff turned out to be 0.00103 s⁻¹. In experiment [14], the on-rate constant (kon) turned out to be 429000 M⁻¹ s⁻¹.
